Test results from the MegaScale stability set (Tsuboyama et al. 2023).

B1: HEEH_KT_rd6_0790 (parent)
chain: SEEEEEEWRRAKERGEEIIILGILWKPNDEEAERRIKEALRRV

Variants of: B1
Assay: folding stability dG (cDNA display proteolysis); higher = more stable
Conditions: PBS, room temperature

Folding stability dG [kcal/mol] of substitutions, site by site:
R35: H 1.61; W 1.56; P 0.078; V 1.48; E 1.68; Q 2.14; I 1.66; G 1.32; T 1.5; F 1.38; M 2.2; L 2.19; A 2.21; K 2.09; S 1.71; D 1.49; Y 1.18; N 1.62
E31: Y 1.56; T 1.79; Q 1.72; R 1.38; D 2.14; P 0.967; L 1.69; H 1.64; A 1.79; M 1.54; F 1.49; G 1.61; K 1.32; W 1.5; N 1.69; V 1.9; I 1.8; S 1.69
K37: F 2.11; H 2; M 2.23; T 2.4; R 2.37; N 2.35; I 2.56; Q 2.04; D 1.93; E 2.49; W 2.3; L 2.75; A 1.92; S 1.85; Y 2.08; V 2.44; G 1.43; P 0.399
R42: T 1.83; E 1.75; C 1.95; D 1.56; V 1.95; L 2.09; W 1.74; F 1.77; P 1.33; S 1.92; G 1.88; I 2; H 1.79; K 2.14; A 2.11; M 1.98; N 1.84; Y 1.77; Q 2.09
R34: K 2.06; D 1.64; H 1.73; A 2.22; M 2.12; Q 2.14; S 2.02; Y 1.87; L 2.06; F 1.9; W 1.92; N 2; G 1.63; T 1.9; E 2.12; P 0.726; C 2.5; V 1.87; I 1.77
R41: F 1.76; I 1.76; A 2.07; G 1.74; T 1.81; H 1.88; M 1.9; P 0.888; L 2.07; S 1.94; C 2.43; N 1.97; K 2.06; Y 1.74; Q 1.92; W 1.67; E 1.89; V 1.75; D 1.79
E30: Q 1.94; F 2.05; W 1.94; R 1.81; Y 2.13; K 1.93; T 1.9; N 1.83; A 2.03; H 2.06; I 2.17; G 1.78; L 2.28; D 2.25; S 1.83; P 2.04; V 2.04; M 2.24
L40: E 0.814; Q 1; F 1.78; W 1.45; K 1.06; A 1.12; H 1.26; G 0.586; D 0.532; Y 1.1; N 0.57; I 1.97; M 1.76; P 0.583; R 1.2; V 1.25; S 0.788; C 1.55; T 0.781
D29: W 1.55; T 0.862; P 1.09; Y 1.24; S 1.42; V 1.25; Q 1.34; R 1.19
I36: E 0.641; Q 0.909; F 1.5; D 0.894; P 0.142; L 1.49; A 1.11; W 1.32; N 0.613; K 0.876; G 1.03
